Measured values from the supplement of paper PMC7877785.
± gives the uncertainty stated by the source.

Assay: self-splicing fitness, log relative to wild type (ln ratio); higher = more splicing; Tetrahymena group I intron in knt gene, E. coli kanamycin selection, DiMSum; sequences stand for … in CUCUCU…GGAGGGAAAAGUUAUCAGGCAUGCACCUGGUAGCUAGUCUUUAAACCAAUAGAUUGCAUCGGUUUAAAAGGCAAGACCGUCAAAUUGCGGGAAAGGGGUCAACAGCCGUUCAGUACCAAGUCUCAGGGGAAACUUUGAGAUGGCCUUGCAAAGGGUAUGGUAAUAAGCUGACGGACAUGGUCCUAACCACGCAGCCAAGUCCUAAGUCAACAGAUCUUCUGUUGAUAUGGAUGCAGUUCACAGACUAAAUGUCGGUCGGGGAAGAUGUAUUCUUCUCAUAAGAUAUAGUCGGACCUCUCCUUAAUGGGAGCUAGCGGAUGAAGUGAUGCAACACUGGAGCCGCUGGGAACUAAUUUGUAUGCGAAAGUAUAUUGAUUAGUUUUGGAGUACUCGUGGUCG
Summary of the method: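 A randomised library covering all eight P1ex-region intron nucleotides was built with the intron in the knt kanamycin-resistance gene on pET-22b(+) and held in E. coli BL21(DE3). Cells were grown overnight at 37°C or 30°C on LB agar, with or without 25 μg/mL kanamycin, plus 100 μg/mL carbenicillin, 50 μM IPTG and 0.2% rhamnose, and pooled colonies were amplicon-sequenced on an Illumina HiSeq 2500. DiMSum fitness is the error-weighted combination of wild-type-normalised replicate fold changes, kanamycin versus none.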

Sequence | self-splicing fitness (ln) (30 °C) | self-splicing fitness (ln) (37 °C)
UAGCAGCAAUAUUACGCCAA | -1.78 ± 0.12 | -0.98 ± 0.1
CGGCAGCAAUAUUACGGAUU | -3.9 ± 0.31 | -2.24 ± 0.21
GGCAAGCAAUAUUACGACGG | -2.85 ± 0.16 | -2.72 ± 0.2
GCUAAGCAAUAUUACGUCUC | -0.757 ± 0.066 | -0.164 ± 0.072
GUGCAGCAAUAUUACGAGCA | -3.43 ± 0.31 | -1.18 ± 0.15
CGUUAGCAAUAUUACGUUUU | -4.77 ± 0.27 | -2.99 ± 0.17
GAACAGCAAUAUUACGAUUA | -0.501 ± 0.11 | -0.296 ± 0.098
UAGUAGCAAUAUUACGGUCA | -0.074 ± 0.16 | -0.852 ± 0.18
GAUCAGCAAUAUUACGCCAG | -3.32 ± 0.3 | -1.93 ± 0.31
UCGCAGCAAUAUUACGAGAG | -4.55 ± 0.36 | -2.39 ± 0.18
CAAAAGCAAUAUUACGGGUA | -2.22 ± 0.13 | -2.12 ± 0.15
CGUGAGCAAUAUUACGGCCA | -2.35 ± 0.49 | 
CCUCAGCAAUAUUACGUUUU | -4.52 ± 0.27 | -3.03 ± 0.17
AAACAGCAAUAUUACGGUAC | -3.52 ± 0.2 | -2.75 ± 0.26
GUAAAGCAAUAUUACGACAG | -2.12 ± 0.17 | -2.22 ± 0.25
UGGGAGCAAUAUUACGAAAC | -1.85 ± 0.22 | -1.79 ± 0.49
UGCAAGCAAUAUUACGAAGU | -3 ± 0.49 | 

Sequence | self-splicing fitness (ln) (30 °C) | self-splicing fitness (ln) (37 °C)
GCGUAGCAAUAUUACGGAGG | -3.61 ± 0.23 | -1.98 ± 0.18
UCGUAGCAAUAUUACGCGGA | -2.54 ± 0.17 | -1.4 ± 0.12
GUUAAGCAAUAUUACGUGUA | -2.09 ± 0.098 | -0.751 ± 0.091
GAAAAGCAAUAUUACGCUUC | -3.71 ± 0.12 | -2.77 ± 0.14
CGCGAGCAAUAUUACGCGGC |  | -2.4 ± 0.38
UUGUAGCAAUAUUACGCUUG | -0.622 ± 0.12 | -0.277 ± 0.13
UGUCAGCAAUAUUACGAACA | -0.481 ± 0.068 | 0.521 ± 0.086
GAGCAGCAAUAUUACGUAUC | -2.06 ± 0.087 | -1.44 ± 0.091
CCAUAGCAAUAUUACGCCCG | -0.369 ± 0.16 | 0.418 ± 0.21
GAUCAGCAAUAUUACGGUUC | -2.83 ± 0.23 | -0.31 ± 0.14
GUGUAGCAAUAUUACGUAUG | -3.21 ± 0.23 | -2.78 ± 0.27
GUAUAGCAAUAUUACGCAUU | -2 ± 0.17 | -2.28 ± 0.29
UUUGAGCAAUAUUACGGAAC | -1.63 ± 0.16 | -1.2 ± 0.24
ACCAAGCAAUAUUACGCCCC | -1.37 ± 0.35 | 0.27 ± 0.24
GGGCAGCAAUAUUACGAAUA |  | 0.108 ± 0.17
GCCAAGCAAUAUUACGCUUC | -2.75 ± 0.14 | -1.17 ± 0.16
GAGAAGCAAUAUUACGGAAC | -2.78 ± 0.19 | -0.25 ± 0.16
